Measurements as given in paper PMC5131612 (Journal of Structural Biology, 2016).

Assays:
[1] = biological target: GST-USP12WT (24-370) (human, UniProt O75317 24-370); experiment: SPR
[2] = biological target: T1, His-USP1 (21-785) (human, UniProt O94782 21-785); experiment: SEC-MALS
T1 sequence (looked up): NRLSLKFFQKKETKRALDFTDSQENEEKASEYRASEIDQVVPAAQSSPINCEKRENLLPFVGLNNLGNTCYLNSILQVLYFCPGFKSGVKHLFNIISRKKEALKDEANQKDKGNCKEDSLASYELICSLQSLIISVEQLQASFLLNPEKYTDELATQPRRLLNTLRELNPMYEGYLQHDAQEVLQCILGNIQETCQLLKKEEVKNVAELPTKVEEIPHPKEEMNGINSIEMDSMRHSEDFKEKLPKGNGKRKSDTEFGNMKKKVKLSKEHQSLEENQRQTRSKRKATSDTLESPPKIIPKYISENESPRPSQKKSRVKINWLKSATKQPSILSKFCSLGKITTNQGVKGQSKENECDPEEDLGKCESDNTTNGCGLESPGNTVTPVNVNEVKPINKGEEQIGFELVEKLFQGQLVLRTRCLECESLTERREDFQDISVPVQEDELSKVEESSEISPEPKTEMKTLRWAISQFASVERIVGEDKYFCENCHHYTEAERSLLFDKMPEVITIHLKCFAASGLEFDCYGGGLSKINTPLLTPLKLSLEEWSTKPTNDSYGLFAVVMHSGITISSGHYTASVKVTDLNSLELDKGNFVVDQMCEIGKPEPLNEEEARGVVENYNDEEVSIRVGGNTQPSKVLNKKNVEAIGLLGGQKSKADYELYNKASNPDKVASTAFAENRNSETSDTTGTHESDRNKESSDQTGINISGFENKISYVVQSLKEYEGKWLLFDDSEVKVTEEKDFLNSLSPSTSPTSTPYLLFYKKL

Sequence of GST-USP12WT (24-370) (O75317 24-370): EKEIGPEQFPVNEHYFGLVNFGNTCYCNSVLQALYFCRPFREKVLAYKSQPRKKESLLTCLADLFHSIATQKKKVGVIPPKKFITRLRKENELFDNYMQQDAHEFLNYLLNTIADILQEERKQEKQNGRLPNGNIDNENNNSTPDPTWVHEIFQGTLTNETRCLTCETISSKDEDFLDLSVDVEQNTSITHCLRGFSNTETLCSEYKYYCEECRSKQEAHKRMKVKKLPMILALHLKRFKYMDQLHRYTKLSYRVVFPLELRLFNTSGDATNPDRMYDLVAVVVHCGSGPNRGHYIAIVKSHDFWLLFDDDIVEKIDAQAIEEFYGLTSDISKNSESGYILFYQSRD

B1: UAF1FL, UAF1 (9-677) (natural protein)
chain: not shown
Kd of the second binding event [1]: 325 nM
stoichiometry N [2]: 2 UAF1 per USP1
